Numbering of substitutions follows the chain as printed.

The target of test [1] is T1, native human ApoC3 (human, UniProt P02656 21-99, biotinylated in the captured-antigen assays (Tables 6 and 8); sites not stated).
T1 construct: also called nhuApoC3; native huApoC3
Put plainly: SPR, biotinylated antigen captured on SA chip, scFv periplasmic extract injected, pH 7.4. On the technique in general: Surface plasmon resonance follows binding to a sensor surface in real time, without labels.

The target in test [2] is T2, recombinant cynomolgus ApoC3 (cynomolgus monkey, UniProt P18659 21-99, biotinylated in the captured-antigen assays (Tables 6 and 8); sites not stated).
T2 construct: No cleavage site is stated, so none is applied; also called rcyApoC3; bio-rcyApoC3
T2 sequence (P18659 21-99 limits assumed): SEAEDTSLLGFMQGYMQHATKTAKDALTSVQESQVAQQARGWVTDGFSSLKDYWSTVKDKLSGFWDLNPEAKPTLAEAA
Described as above.

Test [3] deals with T1, native human ApoC3. The test can be described thus: SPR, antigen immobilized on CM5 chip, IgG as analyte, pH 7.4.
For test [4], the target named is T2, recombinant cynomolgus ApoC3. Described as above.
Test [5] addresses T1, native human ApoC3. The test can be described thus: SPR, biotinylated antigen captured on streptavidin chip, IgG as analyte, pH 7.4.
The target in test [6] is T1, native human ApoC3. The test can be described thus: SPR, IgG captured via anti-human Fc, ApoC3 analyte 50 nM. The procedure:
(§1) Immobilization was performed in accordance with the method provided by Biacore in the NHS/EDC kit (Biacore AB). Briefly, after activation of the chip, a solution of 30 μg/ml anti-human Fcγ antibody in 10 mM acetate buffer with pH 5.0 was injected until the surface density reached approximately 10,000 RU. […] Following antibody capture, 100 μl of HBS-EP buffer was injected and passed through the flow cells at 30 μl/min. To bind target, 60 μl of 400 nM, 200 nM, 100 nM, or 50 nM ApoC3 protein in HBS-EP buffer was injected. An off-rate wash was performed by injection of HBS-EP buffer at 30 μl/min for 5 min. After dissociation, the flow cell surfaces were regenerated by injecting 20 μl of 10 mM glycine at pH 1.5.
(§2) The resulting sensorgrams were analysed with BIAevaluation 4.1 software using the Langmuir 1:1 binding model to derive binding kinetics. Data was zero adjusted and the reference cell sensorgrams were subtracted. A no-analyte blank assay was used for double referencing the sensorgrams corresponding to nhuApoC3 and rcyApoC3 injections. The dissociation and association phase sensorgrams were fitted separately for the 4 different concentration curves. Sensorgrams were excluded from the fitting if maximum RU values were below the limit of detection (i.e., <5 RU). SPR signals were too low to calculate kinetic parameters for […].

For test [7], the target named is T1, native human ApoC3. Put plainly: SPR, IgG captured via anti-human Fc, ApoC3 analyte 100 nM. The procedure: as §1, §2
The target of test [8] is T2, recombinant cynomolgus ApoC3. The test is described as above. The procedure:
as §1, §2

Test [9] deals with T1, native human ApoC3. The test can be described thus: SPR, IgG captured via anti-human Fc, ApoC3 analyte 200 nM. The procedure: as §1, §2
Test [10] concerns the target T2, recombinant cynomolgus ApoC3. Described as above. The procedure: as §1, §2
The target in test [11] is T1, native human ApoC3. The test can be described thus: SPR, IgG captured via anti-human Fc, ApoC3 analyte 400 nM. As for the experimental part: as §1, §2
For test [12], the target named is T2, recombinant cynomolgus ApoC3. The test is described as above. As for the experimental part:
as §1, §2

The target is the same in test [13]. The test can be described thus: SPR, biotinylated antigen captured on streptavidin chip, IgG as analyte, pH 7.4.

T1 sequence (P02656 21-99): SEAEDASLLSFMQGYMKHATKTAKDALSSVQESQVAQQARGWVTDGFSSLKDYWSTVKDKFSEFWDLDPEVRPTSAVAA

B1: 29B03 scFv (scFv, part only; not given: scFv linker, domain order, c-myc tag, V domains shown, not shown: another chain or arm of the molecule; small tags and cut ends)
VH: QLQLVESGGGLVQPGGSLRLSCAASGFTFGTYSMRWVRQVPRKALEWVSSISTDGGGTAYRDSVKGRFTISRDNAKNTLYLQMNNLKPEDTAIYYCVIAGYSDWGQGTQVTVSS
VL: DVVLTQTPGSLSVVPGESASISCKAGQNLVHPDGKTYLYWLLQKPGQSPQRLIYQVSNRDSGVPDRFTGSGSGTDFTLKISGVKVEDAGVYYCAQGTYWPKTFGQGTKLEIK
In the test with native human ApoC3 [1], B1 gave an R0 of 930 RU and a koff of 0.000572 s⁻¹. Also, in test [2], the R0 came out at 122 RU and the off-rate (koff) came out at 0.0418 s⁻¹.

B2: 29G02 scFv (scFv, part only; not given: scFv linker, domain order, c-myc tag, V domains shown, not shown: another chain or arm of the molecule; small tags and cut ends)
VH: B1 VH
VL: DVVLTQTPGSLSVVPGESASISCKATQSLVHIDGKTYLYWLLQKPGQSPQRLIYQVSTRDSGVPDRFTGAGSGAEFTLKISGVKAEDAGVYYCAQDTYSTKTFGQGTKLEIK
As to B2, the R0 in the test with native human ApoC3 [1] was 833 RU; in test [2], 102 RU. In addition, the koff was 0.00435 s⁻¹ with native human ApoC3 [1] and 0.00721 s⁻¹ in [2].

B3: 30D10 scFv (scFv, part only; not given: scFv linker, domain order, c-myc tag, V domains shown, not shown: another chain or arm of the molecule; small tags and cut ends)
VH: B1 VH
VL: DVVLTQTPGSLSVVPGESASISCTASQSLRHSDGRTYLYWLRQKPGQSPQRLIKRVSTRDPGVPDRFTGSGSGTDFTLKISGVRAEDAGVYYCAQGTYYPLTFGQGTKVELK
In the test with native human ApoC3 [1], B3 came in with an R0 of 695 RU and a koff of 0.00123 s⁻¹. Moreover, the koff in test [2] is 0.0436 s⁻¹.

B4: 5E5 WT scFv (scFv, part only; not given: scFv linker, domain order, c-myc tag, V domains shown, not shown: another chain or arm of the molecule; small tags and cut ends)
VH: B1 VH
VL: ATMLTQSPGSLSVVPGESASISCKTSQGLVHSDGKTYFYWFLQKPGQSPQQLIYQVSNRASGVPDRFTGSGSGTDFTLKISGVKAEDAGVYYCAQGTYYPHTFGSGTRLEIK
With B4, in the test with native human ApoC3 [1], the R0 stood at 854 RU and the koff was found to be 0.000964 s⁻¹. For the same molecule, the koff in [2] was 0.0391 s⁻¹.

B5: 29A06 scFv (scFv, part only; not given: scFv linker, domain order, c-myc tag, V domains shown, not shown: another chain or arm of the molecule; small tags and cut ends)
VH: B1 VH
VL: B1 VL with G26S, P32S, D33N, D60G, G62E, V85A
In the case of B5, the R0 is 1010 RU with native human ApoC3 [1] and 125 RU in test [2]. The koff is 0.00162 s⁻¹ in the test with native human ApoC3 [1] and 0.0406 s⁻¹ in test [2].

B6: 29G11 scFv (scFv, part only; not given: scFv linker, domain order, c-myc tag, V domains shown, not shown: another chain or arm of the molecule; small tags and cut ends)
VH: B1 VH
VL: B2 VL with E17G, T26S, H31Y, I32S, L42R, T58N, D60P, A70S, A74T, E75D
With B6, the results for the R0 (in the test with native human ApoC3 [1]; in test [2]) were 809 RU and 92.7 RU, respectively. In addition, the koff in the test with native human ApoC3 [1] was 0.00633 s⁻¹; in test [2], 0.00714 s⁻¹.

B7: 29A05 scFv (scFv, part only; not given: scFv linker, domain order, c-myc tag, V domains shown, not shown: another chain or arm of the molecule; small tags and cut ends)
VH: B1 VH
VL: B1 VL with G26S, N28S, H31Y, P32S
On to B7, for which, in the test with native human ApoC3 [1], the R0 turned out to be 545 RU and the koff was found to be 0.0069 s⁻¹. In addition, in [2], the R0 is 145 RU and the koff was determined as 0.0146 s⁻¹.

B8: 30D10 IgG (antibody, V domains shown)
VH: B1 VH
VL: B3 VL
In the test with native human ApoC3 [3], B8 had a Kd of 0.15 nM, a koff of 0.000231 s⁻¹ and a kon of 1.5e+06 M⁻¹ s⁻¹. In addition, the binding result in [4] is recorded as “no binding”. Moreover, in the test with native human ApoC3 [5], the affinity, expressed as Kd, was 0.1 nM; the koff stood at 0.000126 s⁻¹; the kon is 1.29e+06 M⁻¹ s⁻¹.

B9: 29A05 IgG (antibody, V domains shown)
VH: B1 VH
VL: B1 VL with G26S, N28S, H31Y, P32S
Take B9: the Kd in the test with native human ApoC3 [6] is 6.01 nM; with native human ApoC3 [7] it was 6.42 nM; in [8], 296 nM; with native human ApoC3 [9], 6.87 nM; in test [10], 359 nM; with native human ApoC3 [11], 7.36 nM. Moreover, the Kd in test [12] worked out at 365 nM; in the test with native human ApoC3 [3], 0.16 nM; in [4] it was 0.21 nM; with native human ApoC3 [5], 0.13 nM; in [13] it was 0.65 nM. The koff with native human ApoC3 [6] came out at 0.00126 s⁻¹; with native human ApoC3 [7], 0.00132 s⁻¹; in test [8], 0.00887 s⁻¹; in the test with native human ApoC3 [9] it was 0.00133 s⁻¹; in test [10], 0.00875 s⁻¹; with native human ApoC3 [11] it was 0.00133 s⁻¹. The koff worked out at 0.00983 s⁻¹ in test [12]; 8.2e-05 s⁻¹ in the test with native human ApoC3 [3]; 6.4e-05 s⁻¹ in [4]; 6.3e-05 s⁻¹ with native human ApoC3 [5]; 0.000175 s⁻¹ in test [13]. Further, the kon with native human ApoC3 [6] was determined as 210000 M⁻¹ s⁻¹; in the test with native human ApoC3 [7] it was 206000 M⁻¹ s⁻¹; in test [8], 30000 M⁻¹ s⁻¹; with native human ApoC3 [9] it was 194000 M⁻¹ s⁻¹; in [10], 24400 M⁻¹ s⁻¹; in the test with native human ApoC3 [11] it was 181000 M⁻¹ s⁻¹. Moreover, the kon was 26900 M⁻¹ s⁻¹ in test [12]; 520000 M⁻¹ s⁻¹ in the test with native human ApoC3 [3]; 310000 M⁻¹ s⁻¹ in [4]; 500000 M⁻¹ s⁻¹ with native human ApoC3 [5]; 270000 M⁻¹ s⁻¹ in test [13].

B10: 29F10 scFv (scFv, part only; not given: scFv linker, domain order, c-myc tag, V domains shown, not shown: another chain or arm of the molecule; large carriers; small tags and cut ends)
VH: B1 VH
VL: B1 VL with S18P, I21V, G26S, N28S, D60G, K79E, V85A
In the test with native human ApoC3 [1], B10 registered an R0 of 808 RU and a koff of 0.00144 s⁻¹. Also, in test [2], the R0 is 52 RU and the koff was determined as 0.059 s⁻¹.

B11: 29A06 IgG (antibody, V domains shown)
VH: B1 VH
VL: B1 VL with G26S, P32S, D33N, D60G, G62E, V85A
Regarding B11, the Kd is 0.755 nM in the test with native human ApoC3 [6]; 0.814 nM in the test with native human ApoC3 [7]; 0.91 nM with native human ApoC3 [9]; 0.973 nM in the test with native human ApoC3 [11]; 919 nM in test [12]; 0.07 nM with native human ApoC3 [3]. For the same molecule, the Kd in test [4] came out at 0.15 nM; with native human ApoC3 [5] it was 0.04 nM; in [13], 0.46 nM. Moreover, the koff with native human ApoC3 [6] came out at 0.000314 s⁻¹; with native human ApoC3 [7] it was 0.000317 s⁻¹; with native human ApoC3 [9], 0.00032 s⁻¹; with native human ApoC3 [11], 0.000327 s⁻¹; in test [12], 0.0207 s⁻¹; with native human ApoC3 [3] it was 6.5e-05 s⁻¹. Moreover, the koff in test [4] is 7.5e-05 s⁻¹; with native human ApoC3 [5] it was 4.2e-05 s⁻¹; in [13] it was 0.000169 s⁻¹. Also, the kon in the test with native human ApoC3 [6] was 416000 M⁻¹ s⁻¹; with native human ApoC3 [7], 390000 M⁻¹ s⁻¹; with native human ApoC3 [9], 351000 M⁻¹ s⁻¹; with native human ApoC3 [11] it was 336000 M⁻¹ s⁻¹; in test [12] it was 22500 M⁻¹ s⁻¹; with native human ApoC3 [3] it was 950000 M⁻¹ s⁻¹. Moreover, the figures for the kon (in test [4]; with native human ApoC3 [5]; in test [13]) were 500000 M⁻¹ s⁻¹, 960000 M⁻¹ s⁻¹ and 370000 M⁻¹ s⁻¹, respectively.

In general, koff refers to a measure of how fast the partners let go of each other. What is called Kd is the constant that tells how readily two partners part at equilibrium. Broadly, the kon is a measure of how fast the partners come together.

Source of the values: US20210347865A1 (STATEN BIOTECHNOLOGY B V, published 2021).
